Experimental data from patent publication US20140287434.

Assays:
[1] = tested on: Btk SH3
[2] = tested on: Btk SH3-SH2 (Btk 32)
[3] = tested on: Lck peptide substrate (YIYGSFK) attached to the carboxy-terminus of the Itk SH2 domain

Chain of FLAG-tagged Btk full-length enzyme (Q06187 whole entry): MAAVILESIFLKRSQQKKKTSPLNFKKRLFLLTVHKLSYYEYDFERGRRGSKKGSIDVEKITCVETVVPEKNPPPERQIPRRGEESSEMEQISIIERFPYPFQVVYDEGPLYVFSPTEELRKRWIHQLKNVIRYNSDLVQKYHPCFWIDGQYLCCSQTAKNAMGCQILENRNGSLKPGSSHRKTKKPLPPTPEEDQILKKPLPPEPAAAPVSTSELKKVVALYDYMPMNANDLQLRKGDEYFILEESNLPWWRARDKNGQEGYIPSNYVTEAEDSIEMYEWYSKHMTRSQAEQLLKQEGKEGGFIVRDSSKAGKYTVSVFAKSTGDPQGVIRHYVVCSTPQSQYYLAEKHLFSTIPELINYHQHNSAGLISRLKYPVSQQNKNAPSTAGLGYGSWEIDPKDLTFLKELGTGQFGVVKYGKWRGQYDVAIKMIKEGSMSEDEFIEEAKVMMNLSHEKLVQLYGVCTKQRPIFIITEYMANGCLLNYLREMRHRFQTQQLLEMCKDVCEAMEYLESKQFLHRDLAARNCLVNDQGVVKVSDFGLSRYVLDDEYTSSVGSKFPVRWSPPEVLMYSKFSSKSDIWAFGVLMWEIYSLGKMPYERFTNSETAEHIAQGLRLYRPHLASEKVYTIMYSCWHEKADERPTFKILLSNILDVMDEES

Row | Substance | phosphorylation on Y223 in an in vitro kinase assay [1] | phosphorylation on Y223 in an in vitro kinase assay [2] | phosphorylation by Lck kinase domain (32P, scintillation counting) against the free peptide YIYGSFK [3]
1 | FLAG-tagged Btk full-length enzyme | are not phosphorylated by the Tec and Btk kinases | only substrates that contain both the site of phosphorylation (Y180 for Itk, Y187 for Tec, Y223 for Btk, and Y783 for PLCγ1) and the adjacent SH2 domain are phosphorylated by the Tec kinases | –
2 | His-tagged wild type Lck kinase domain | – | – | most efficiently phosphorylated when attached to the carboxy-terminus of the SH2 domain and this tethered substrate is a better substrate by an order of magnitude
